{
  "source": "paper PMC3079244",
  "about": "(Biochemistry, 2011)",
  "key": {"TylM1": {"target": "TylM1 (Streptomyces fradiae, UniProt P95748)", "experiment": "X-ray crystal structure, […] Å", "assay_type": "binding", "details": "pH 7.0"}, "crystal structure [1]": {"target": "the molecule itself", "experiment": "crystal structure"}, "crystal structure [2]": {"target": "the molecule itself", "experiment": "crystal structure", "remark": "listed apart in the source"}},
  "data": [
    {"molecule": "Cc1cn([C@H]2C[C@H](O)[C@@H](COP(=O)(O)OP(=O)(O)Oc3ccccc3)O2)c(=O)[nH]c1=O", "note": "[dTDP-phenol]", "values": [
      {"measurement": "X-ray crystal structure, 1.35 Å", "setting": "TylM1; ternary complex with SAM, sugar-nucleotide site", "value": "a close-up view of the binding pocket for dTDP-phenol is presented"}
    ]},
    {"molecule": "C[S+](CC[C@H](N)C(=O)O)C[C@H]1O[C@@H](n2cnc3c(N)ncnc32)[C@H](O)[C@@H]1O", "note": "(some centres unmarked) [SAM]", "values": [
      {"measurement": "X-ray crystal structure, 1.35 Å", "setting": "TylM1; ternary complex with dTDP-phenol, methyl donor site", "value": "The SAM cofactor abuts the first three β-strands of the N-terminal domain"}
    ]},
    {"molecule": "TylM1 from Streptomyces fradiae (N,N-dimethyltransferase), wild type (enzyme, UniProt P95748 1-255, looked up) MAHSSATAGPQADYSGEIAELYDLVHQGKGKDYHREAADLAALVRRHSPKAASLLDVACGTGMHLRHLADSFGTVEGLELSADMLAIARRRNPDAVLHHGDMRDFSLGRRFSAVTCMFSSIGHLAGQAELDAALERFAAHVLPDGVVVVEPWWFPENFTPGYVAAGTVEAGGTTVTRVSHSSREGEATRIEVHYLVAGPDRGITHHEESHRITLFTREQYERAFTAAGLSVEFMPGGPSGRGLFTGLPGAKGETR", "values": [
      {"measurement": "stoichiometry N", "setting": "crystal structure [1]", "value": 2}
    ]},
    {"molecule": "TylM1 H123N mutant protein (enzyme, Streptomyces fradiae, UniProt P95748 1-255, looked up) MAHSSATAGPQADYSGEIAELYDLVHQGKGKDYHREAADLAALVRRHSPKAASLLDVACGTGMHLRHLADSFGTVEGLELSADMLAIARRRNPDAVLHHGDMRDFSLGRRFSAVTCMFSSIGNLAGQAELDAALERFAAHVLPDGVVVVEPWWFPENFTPGYVAAGTVEAGGTTVTRVSHSSREGEATRIEVHYLVAGPDRGITHHEESHRITLFTREQYERAFTAAGLSVEFMPGGPSGRGLFTGLPGAKGETR", "values": [
      {"measurement": "binding result", "setting": "crystal structure [2]", "value": "binds"}
    ]},
    {"molecule": "TylM1 H123A mutant protein (enzyme, Streptomyces fradiae, UniProt P95748 1-255, looked up) MAHSSATAGPQADYSGEIAELYDLVHQGKGKDYHREAADLAALVRRHSPKAASLLDVACGTGMHLRHLADSFGTVEGLELSADMLAIARRRNPDAVLHHGDMRDFSLGRRFSAVTCMFSSIGALAGQAELDAALERFAAHVLPDGVVVVEPWWFPENFTPGYVAAGTVEAGGTTVTRVSHSSREGEATRIEVHYLVAGPDRGITHHEESHRITLFTREQYERAFTAAGLSVEFMPGGPSGRGLFTGLPGAKGETR", "values": [
      {"measurement": "binding result", "setting": "crystal structure [2]", "value": "binds"}
    ]}
  ]
}
